Data as given in IntAct's records for PubMed 21151104.

B1: T-box transcription factor TBX21 (Mus musculus), Q9JKD8 (parent)
chain: MGIVEPGCGDMLTGTEPMPSDEGRGPGADQQHRFFYPEPGAQDPTDRRAGSSLGTPYSGGALVPAAPGRFLGSFAYPPRAQVAGFPGPGEFFPPPAGAEGYPPVDGYPAPDPRAGLYPGPREDYALPAGLEVSGKLRVALSNHLLWSKFNQHQTEMIITKQGRRMFPFLSFTVAGLEPTSHYRMFVDVVLVDQHHWRYQSGKWVQCGKAEGSMPGNRLYVHPDSPNTGAHWMRQEVSFGKLKLTNNKGASNNVTQMIVLQSLHKYQPRLHIVEVNDGEPEAACSASNTHVFTFQETQFIAVTAYQNAEITQLKIDNNPFAKGFRENFESMYASVDTSVPSPPGPNCQLLGGDPFSPLLSNQYPVPSRFYPDLPGQPKDMISQPYWLGTPREHSYEAEFRAVSMKPTLLPSAPGPTVPYYRGQDVLAPGAGWPVAPQYPPKMSPAGWFRPMRTLPMDPGLGSSEEQGSSPSLWPEVTSLQPEPSDSGLGEGDTKRRRISPYPSSGDSSSPAGAPSPFDKETEGQFYNYFPN

Variants of: B1
Details: with runx1_mouse Runx1, Q03347
Chain of runx1_mouse Runx1, Q03347 (Q03347 whole entry): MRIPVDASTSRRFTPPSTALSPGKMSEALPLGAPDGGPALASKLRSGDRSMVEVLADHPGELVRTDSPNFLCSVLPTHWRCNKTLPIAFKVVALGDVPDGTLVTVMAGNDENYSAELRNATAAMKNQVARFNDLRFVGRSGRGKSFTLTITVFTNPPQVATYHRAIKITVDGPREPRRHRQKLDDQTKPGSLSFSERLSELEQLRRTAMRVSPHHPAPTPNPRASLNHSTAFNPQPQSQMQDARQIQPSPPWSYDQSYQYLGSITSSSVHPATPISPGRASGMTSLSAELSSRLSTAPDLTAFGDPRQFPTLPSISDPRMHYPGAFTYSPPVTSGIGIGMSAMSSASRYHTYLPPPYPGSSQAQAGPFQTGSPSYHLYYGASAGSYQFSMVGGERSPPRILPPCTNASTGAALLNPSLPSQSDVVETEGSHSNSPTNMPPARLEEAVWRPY

Variant | effect of a mutation on the interaction
Y304F | disrupting interaction
